Reference: article PMC12207590, “Substrate Specificity of the Organic Cation Transporters MATE1 and MATE2K and Functional Overlap with OCT1 and OCT2” (Journal of Medicinal Chemistry, 2025)
Several values for one entry are separate records, joined by “and”; a condition that tells them apart may be missing. Equal values may be shown once.

System: CN(C)CCc1c[nH]c2ccc(C[C@H]3COC(=O)N3)cc12
Assay: cells, lysate or membranes
Conditions: other: HEK293, 1 min, net uptake; pH 7.4; 37.0 °C

MATE2K (Homo sapiens), sequence (chain, as listed by the source): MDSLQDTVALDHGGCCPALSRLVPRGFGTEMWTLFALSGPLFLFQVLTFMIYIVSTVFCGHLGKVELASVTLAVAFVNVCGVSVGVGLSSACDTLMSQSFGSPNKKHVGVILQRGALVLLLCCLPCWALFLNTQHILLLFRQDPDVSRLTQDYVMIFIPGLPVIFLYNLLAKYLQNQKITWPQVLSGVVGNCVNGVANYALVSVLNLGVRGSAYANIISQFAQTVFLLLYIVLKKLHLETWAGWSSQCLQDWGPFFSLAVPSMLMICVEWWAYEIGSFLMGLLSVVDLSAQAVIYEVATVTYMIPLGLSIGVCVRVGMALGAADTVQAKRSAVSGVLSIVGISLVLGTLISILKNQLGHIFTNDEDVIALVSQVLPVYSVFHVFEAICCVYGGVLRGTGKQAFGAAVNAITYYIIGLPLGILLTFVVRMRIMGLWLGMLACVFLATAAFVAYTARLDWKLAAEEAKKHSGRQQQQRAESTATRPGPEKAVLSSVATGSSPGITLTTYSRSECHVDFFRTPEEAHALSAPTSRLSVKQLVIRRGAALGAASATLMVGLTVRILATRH

## MATE2K (Homo sapiens)
  Km: 23.1 µM and 18.3 µM
  Vmax: 0.00074 µmol/min/mg and 0.000992 µmol/min/mg
  Vmax/Km: 32.1 µL/min/mg and 54.2 µL/min/mg
